Data as given in patent US20240261333A1 (published 2024).

Assays:
[1] = target: T1, TNFRSF1A, endogenous in A375 melanoma cells (human, UniProt P19438 30-455, poly-LacNAc glycosylation added by B3GNT2 (sites not given)); assay: co-IP of FLAG tagged B3GNT2 from A375 lysate, Western blot
T1 construct: whole, on cells; In the co-IP it comes from the lysate of A375 cells
T1 sequence (looked up): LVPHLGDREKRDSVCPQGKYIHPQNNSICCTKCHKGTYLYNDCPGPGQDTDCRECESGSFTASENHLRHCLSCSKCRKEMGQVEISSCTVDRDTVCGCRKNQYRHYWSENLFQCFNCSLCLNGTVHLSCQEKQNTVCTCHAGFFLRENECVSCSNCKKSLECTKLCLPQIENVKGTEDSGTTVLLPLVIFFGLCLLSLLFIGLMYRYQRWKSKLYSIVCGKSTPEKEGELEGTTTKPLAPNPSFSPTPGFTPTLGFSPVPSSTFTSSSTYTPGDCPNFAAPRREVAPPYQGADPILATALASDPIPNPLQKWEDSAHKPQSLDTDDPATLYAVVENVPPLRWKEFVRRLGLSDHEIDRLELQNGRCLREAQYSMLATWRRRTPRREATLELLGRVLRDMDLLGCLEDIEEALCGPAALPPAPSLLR
Description: (§1) Cells were plated in 10-cm cell culture dishes and grown to 60-80% confluency. For each condition, two biological replicates were harvested for co-IP. Cells were washed with PBS and 4 mL of lysis buffer (20 mM HEPES, 1% Triton X-100, 150 mM NaCl, 1 mM EDTA, and 10% glycerol) containing protease inhibitor cocktail was added. Cells were scraped and lysate was incubated at 4° C. under rotary agitation for 1 h. Lysate was centrifuged at 14,000×g for 10 min at 4° C. Supernatant was transferred to a new tube and an aliquot was taken as the input. […] For Western blots, 10 μg/mL Chicken Anti-FLAG (Aves labs ET-DY100) and IgY control (R&D Systems AB-101-C) antibodies were biotinylated (Thermo Fisher Scientific 90407) and added to the respective conditions. Lysates with antibodies were incubated at 4° C. under rotary agitation overnight. For each mL of lysate, 50 μL of Pierce Protein A/G Magnetic Beads (Mass spectrometry; Thermo Fisher Scientific 88803) or Pierce Streptavidin Magnetic Beads (Western blot; Thermo Fisher Scientific 88817) was washed twice with lysis buffer. Lysates with antibodies were added to the beads and incubated at 4° C. under rotary agitation for 4 h. Beads were washed with lysis buffer 3 times and resuspended in lysis buffer for storage.

[2] = target: T2, CD276, endogenous in A375 melanoma cells (human, UniProt Q5ZPR3 29-534, poly-LacNAc glycosylation added by B3GNT2 (sites not given)); assay: as above
T2 construct: whole, on cells; On fixed A375 cells in flow cytometry; In the co-IP it comes from the lysate of these cells; also called B7H3
T2 sequence (looked up): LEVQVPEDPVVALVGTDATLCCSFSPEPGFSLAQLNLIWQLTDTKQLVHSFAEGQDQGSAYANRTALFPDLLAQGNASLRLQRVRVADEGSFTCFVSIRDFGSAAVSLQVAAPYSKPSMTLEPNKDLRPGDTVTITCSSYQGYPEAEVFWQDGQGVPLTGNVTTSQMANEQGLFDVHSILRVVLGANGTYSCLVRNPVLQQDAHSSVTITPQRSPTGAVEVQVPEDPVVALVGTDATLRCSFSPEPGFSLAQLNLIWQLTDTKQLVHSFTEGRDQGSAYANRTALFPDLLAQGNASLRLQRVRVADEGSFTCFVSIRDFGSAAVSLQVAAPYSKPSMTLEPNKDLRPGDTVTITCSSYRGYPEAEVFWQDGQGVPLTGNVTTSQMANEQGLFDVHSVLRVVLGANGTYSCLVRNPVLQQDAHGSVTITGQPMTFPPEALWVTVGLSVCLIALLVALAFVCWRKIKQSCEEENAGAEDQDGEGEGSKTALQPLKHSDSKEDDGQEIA
Description: as §1

[3] = target: T3, IFNAR1, endogenous in A375 melanoma cells (human, UniProt P17181 28-557, poly-LacNAc glycosylation added by B3GNT2 (sites not given)); assay: as above
T3 construct: whole, on cells; In the co-IP it comes from the lysate of A375 cells; also called IFNARI
T3 sequence (looked up): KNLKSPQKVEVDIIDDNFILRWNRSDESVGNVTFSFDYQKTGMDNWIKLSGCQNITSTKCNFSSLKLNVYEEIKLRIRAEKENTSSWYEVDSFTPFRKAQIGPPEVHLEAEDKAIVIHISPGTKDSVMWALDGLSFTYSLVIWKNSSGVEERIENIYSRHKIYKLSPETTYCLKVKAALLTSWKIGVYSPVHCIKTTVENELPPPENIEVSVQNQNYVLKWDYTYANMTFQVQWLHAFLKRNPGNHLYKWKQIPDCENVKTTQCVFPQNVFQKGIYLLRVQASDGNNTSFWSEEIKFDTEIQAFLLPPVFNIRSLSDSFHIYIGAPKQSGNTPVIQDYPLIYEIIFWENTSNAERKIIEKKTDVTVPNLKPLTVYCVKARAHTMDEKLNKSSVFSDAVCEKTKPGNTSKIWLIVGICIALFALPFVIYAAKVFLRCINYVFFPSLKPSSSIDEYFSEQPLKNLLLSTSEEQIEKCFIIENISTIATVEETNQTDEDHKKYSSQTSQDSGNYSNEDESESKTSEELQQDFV
Description: as §1

PSMD4 = target: T4, PSMD4 (human, UniProt P55036 1-377, limits assumed); assay: co-IP with anti-FLAG, mass spectrometry; lysate of cells with C-FLAG B3GNT2
T4 construct: also called NP_001317621.1 (+1)
T4 sequence (P55036 whole entry): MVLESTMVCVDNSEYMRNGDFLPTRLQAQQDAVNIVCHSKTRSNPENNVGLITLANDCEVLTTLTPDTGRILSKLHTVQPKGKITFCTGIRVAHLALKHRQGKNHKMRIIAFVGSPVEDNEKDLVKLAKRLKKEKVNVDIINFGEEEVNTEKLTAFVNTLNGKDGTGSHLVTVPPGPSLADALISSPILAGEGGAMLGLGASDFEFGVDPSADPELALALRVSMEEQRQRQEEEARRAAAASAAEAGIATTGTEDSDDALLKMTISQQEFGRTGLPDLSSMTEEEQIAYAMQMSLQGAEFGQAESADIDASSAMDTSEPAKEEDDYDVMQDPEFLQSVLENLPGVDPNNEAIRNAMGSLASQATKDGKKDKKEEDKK
Description: as §1
(§2) Magnetic beads were resuspended in 100 mM Tris pH 7.8, reduced, alkylated and digested with trypsin at 37° ° C. overnight. This solution was subjected to solid phase extraction to concentrate the peptides and remove unwanted reagents followed by injection onto a Shimadzu HPLC with fraction collector. Eight fractions were collected and after concentration were injected on a Waters NanoAcquity HPLC equipped with a self-packed Aeris 3 μm C18 analytical column 0.075 mm by 20 cm, (Phenomenex). Peptides were eluted using standard reverse-phase gradients. The effluent from the column was analyzed using a Thermo Orbitrap Elite mass spectrometer (nanospray configuration) operated in a data dependent manner for 54 minutes. […]

CD70 = target: T5, CD70 (human, UniProt P32970 1-193); assay: as above
T5 construct: also called NP_001243.1
T5 sequence (looked up): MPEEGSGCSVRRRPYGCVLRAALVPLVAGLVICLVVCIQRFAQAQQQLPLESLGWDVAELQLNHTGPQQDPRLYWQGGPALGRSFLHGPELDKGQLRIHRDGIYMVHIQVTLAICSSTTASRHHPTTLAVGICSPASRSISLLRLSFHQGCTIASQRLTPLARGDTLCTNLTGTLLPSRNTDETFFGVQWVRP
Description: as §1, §2

MARS = target: T6, MARS (human, UniProt P56192 1-900); assay: as above
T6 construct: also called NP_004981.2
T6 sequence (looked up): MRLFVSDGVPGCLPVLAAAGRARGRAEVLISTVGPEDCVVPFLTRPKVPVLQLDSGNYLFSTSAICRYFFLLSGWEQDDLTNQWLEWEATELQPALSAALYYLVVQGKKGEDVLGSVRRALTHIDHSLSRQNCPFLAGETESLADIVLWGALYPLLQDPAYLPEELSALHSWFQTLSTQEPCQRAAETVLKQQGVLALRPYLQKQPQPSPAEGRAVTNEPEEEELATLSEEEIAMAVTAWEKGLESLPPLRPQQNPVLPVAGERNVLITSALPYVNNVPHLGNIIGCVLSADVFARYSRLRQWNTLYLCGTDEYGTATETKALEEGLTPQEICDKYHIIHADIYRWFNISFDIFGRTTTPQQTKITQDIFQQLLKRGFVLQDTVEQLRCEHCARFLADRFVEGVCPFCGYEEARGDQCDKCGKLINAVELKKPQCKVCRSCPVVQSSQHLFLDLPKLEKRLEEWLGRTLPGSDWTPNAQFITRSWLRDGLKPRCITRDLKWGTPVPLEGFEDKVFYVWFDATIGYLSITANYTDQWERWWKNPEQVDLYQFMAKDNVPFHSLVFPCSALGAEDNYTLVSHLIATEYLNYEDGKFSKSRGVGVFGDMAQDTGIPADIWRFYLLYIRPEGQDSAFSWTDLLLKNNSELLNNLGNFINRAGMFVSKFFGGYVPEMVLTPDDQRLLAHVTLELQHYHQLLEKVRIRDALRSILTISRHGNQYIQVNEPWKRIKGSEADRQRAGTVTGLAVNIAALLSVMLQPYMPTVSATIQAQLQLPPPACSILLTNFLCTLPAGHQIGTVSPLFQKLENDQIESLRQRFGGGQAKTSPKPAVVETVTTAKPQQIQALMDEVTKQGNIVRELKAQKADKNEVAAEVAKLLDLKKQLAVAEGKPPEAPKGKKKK
Description: as §1, §2

RPS11 = RPS11 (UniProt P62280 2-158); assay: co-IP with anti-FLAG, mass spectrometry; C-FLAG B3GNT2
Description: as §1
(§3) Magnetic beads were resuspended in 100 mM Tris pH 7.8, reduced, alkylated and digested with trypsin at 37° ° C. overnight. This solution was subjected to solid phase extraction to concentrate the peptides and remove unwanted reagents followed by injection onto a Shimadzu HPLC with fraction collector. Eight fractions were collected and after concentration were injected on a Waters NanoAcquity HPLC equipped with a self-packed Aeris 3 μm C18 analytical column 0.075 mm by 20 cm, (Phenomenex). Peptides were eluted using standard reverse-phase gradients. The effluent from the column was analyzed using a Thermo Orbitrap Elite mass spectrometer (nanospray configuration) operated in a data dependent manner for 54 minutes. The resulting fragmentation spectra were correlated against the known database using Proteome Discover 1.4 (Thermo Fisher Scientific).

SPRR2E = target: T7, SPRR2E (UniProt P22531 1-72); assay: as above
T7 construct: Protein found in the co-IP by mass spectrometry; also called NP_001019380.2
T7 sequence (looked up): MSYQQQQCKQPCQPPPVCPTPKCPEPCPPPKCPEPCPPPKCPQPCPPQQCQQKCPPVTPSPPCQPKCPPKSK
Description: as §1, §3

RPS17 = RPS17 (UniProt P08708 2-135); assay: as above
Description: as §1, §3

TRIM21 = target: T8, TRIM21 (UniProt P19474 1-475); assay: as above
T8 construct: Endogenous protein found in the co-IP by mass spectrometry; also called NP_003132.2
T8 sequence (P19474 whole entry): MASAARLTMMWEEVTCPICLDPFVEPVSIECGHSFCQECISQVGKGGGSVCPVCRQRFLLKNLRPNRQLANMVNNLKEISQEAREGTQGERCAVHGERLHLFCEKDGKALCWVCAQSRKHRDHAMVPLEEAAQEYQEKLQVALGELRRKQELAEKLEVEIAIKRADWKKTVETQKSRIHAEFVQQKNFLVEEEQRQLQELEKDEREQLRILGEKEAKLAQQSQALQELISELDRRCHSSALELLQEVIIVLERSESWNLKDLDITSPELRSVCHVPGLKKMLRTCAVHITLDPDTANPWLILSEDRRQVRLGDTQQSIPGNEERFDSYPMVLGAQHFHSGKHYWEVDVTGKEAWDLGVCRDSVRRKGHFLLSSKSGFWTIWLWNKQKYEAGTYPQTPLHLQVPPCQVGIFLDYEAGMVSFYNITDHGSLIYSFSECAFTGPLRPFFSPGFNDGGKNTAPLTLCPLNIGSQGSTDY
Description: as §1, §3

ENO1 = target: T9, ENO1 (UniProt P06733 2-434); assay: as above
T9 construct: Endogenous protein found in the co-IP by mass spectrometry; also called NP_001419.1
T9 sequence (P06733 2-434 limits assumed): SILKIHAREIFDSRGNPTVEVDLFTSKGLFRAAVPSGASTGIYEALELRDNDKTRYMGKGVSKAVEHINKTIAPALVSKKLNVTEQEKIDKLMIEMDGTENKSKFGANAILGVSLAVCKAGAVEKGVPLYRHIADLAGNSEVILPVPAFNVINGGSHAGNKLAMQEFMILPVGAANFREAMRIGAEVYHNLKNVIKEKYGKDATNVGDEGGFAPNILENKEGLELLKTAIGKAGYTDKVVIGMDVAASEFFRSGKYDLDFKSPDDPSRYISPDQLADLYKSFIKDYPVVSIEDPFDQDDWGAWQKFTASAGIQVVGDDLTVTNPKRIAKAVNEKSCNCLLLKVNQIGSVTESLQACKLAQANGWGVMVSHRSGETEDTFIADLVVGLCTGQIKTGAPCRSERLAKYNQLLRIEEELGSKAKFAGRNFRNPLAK
Description: as §1, §3

PPIA = target: T10, PPIA (UniProt P62937 2-165); assay: as above
T10 construct: Endogenous protein found in the co-IP by mass spectrometry; also called NP_066953.1
T10 sequence (P62937 2-165 limits assumed): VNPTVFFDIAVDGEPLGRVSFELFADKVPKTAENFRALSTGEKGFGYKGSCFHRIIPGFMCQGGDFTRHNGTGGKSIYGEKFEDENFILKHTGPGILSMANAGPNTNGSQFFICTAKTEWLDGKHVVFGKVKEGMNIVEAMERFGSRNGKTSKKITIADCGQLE
Description: as §1, §3

S100A8 = target: T11, S100A8 (UniProt P05109 1-93); assay: as above
T11 construct: Protein found in the co-IP by mass spectrometry; also called NP_002955.2
T11 sequence (looked up): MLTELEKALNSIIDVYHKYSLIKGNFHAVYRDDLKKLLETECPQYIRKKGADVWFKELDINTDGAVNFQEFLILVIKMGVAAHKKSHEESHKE
Description: as §1, §3

AHNAK = target: T12, AHNAK (UniProt Q09666 1-5890); assay: as above
T12 construct: Endogenous protein found in the co-IP by mass spectrometry; also called NP_001611.1
Description: as §1, §3

S100A9 = target: T13, S100A9 (UniProt P06702 1-114); assay: as above
T13 construct: Protein found in the co-IP by mass spectrometry; also called NP_002956.1
T13 sequence (looked up): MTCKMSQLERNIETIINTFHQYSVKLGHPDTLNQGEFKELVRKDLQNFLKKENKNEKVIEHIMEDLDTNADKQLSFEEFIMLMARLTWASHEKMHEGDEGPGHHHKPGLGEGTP
Description: as §1, §3

B1: FLAG tagged B3GNT2 (N- or C-terminal FLAG tag) (enzyme, human, UniProt Q9NY97 1-397, looked up)
chain: MSVGRRRIKLLGILMMANVFIYFIMEVSKSSSQEKNGKGEVIIPKEKFWKISTPPEAYWNREQEKLNRQYNPILSMLTNQTGEAGRLSNISHLNYCEPDLRVTSVVTGFNNLPDRFKDFLLYLRCRNYSLLIDQPDKCAKKPFLLLAIKSLTPHFARRQAIRESWGQESNAGNQTVVRVFLLGQTPPEDNHPDLSDMLKFESEKHQDILMWNYRDTFFNLSLKEVLFLRWVSTSCPDTEFVFKGDDDVFVNTHHILNYLNSLSKTKAKDLFIGDVIHNAGPHRDKKLKYYIPEVVYSGLYPPYAGGGGFLYSGHLALRLYHITDQVHLYPIDDVYTGMCLQKLGLVPEKHKGFRTFDIEEKNKNNICSYVDLMLVHSRKPQEMIDIWSQLQSAHLKC
notes: The text speaks of the co-IP of B3GNT2 without separating the N-FLAG and C-FLAG constructs, so both are held as one molecule; also called N-FLAG B3GNT2; C-FLAG B3GNT2; not shown: FLAG tag at the N- or the C-terminus
[1]
  binding result: binds
[2]
  binding result: binds
[3]
  binding result: binds

B2: C-terminal FLAG tagged B3GNT2 (enzyme, human, UniProt Q9NY97 1-397, looked up)
chain: B1 chain
notes: Bait of the co-IP; pulled down with mouse anti-FLAG (Millipore Sigma F3165) from cell lysate; also called C-FLAG B3GNT2; C-term flag; not shown: C-terminal FLAG tag
PSMD4
  co-IP mass spectrometry count: 0
CD70
  co-IP mass spectrometry count: 2
MARS
  co-IP mass spectrometry count: 0

B3: C-terminal FLAG tagged B3GNT2 (enzyme, human, UniProt Q9NY97 1-397, looked up)
chain: B1 chain
notes: FLAG-tagged ORF overexpressed in cells; bait of the anti-FLAG co-IP; also called C-FLAG B3GNT2; C-term flag; not shown: FLAG tag at the C-terminus
RPS11
  co-IP mass spectrometry count: 18
SPRR2E
  co-IP mass spectrometry count: 0
RPS17
  co-IP mass spectrometry count: 10
TRIM21
  co-IP mass spectrometry count: 0
ENO1
  co-IP mass spectrometry count: 4
PPIA
  co-IP mass spectrometry count: 0
S100A8
  co-IP mass spectrometry count: 3
AHNAK
  co-IP mass spectrometry count: 2
S100A9
  co-IP mass spectrometry count: 9
